Measured values from patent US20240200055A1, “TRANSFORMED CELL LINES EXPRESSING IL24-STAT3 AND METHODS FOR SCREENING AGENTS FOR TREATING BY TARGETING IL24-STAT3 SIGNALING PATHWAY USING THE SAME” (UIF (University Industry Foundation), Yonsei University, priority 2022, published 2024).

What was measured:
[1] = system: IL24-STAT3 signaling; test: IL24-induced STAT3 luciferase reporter activity in HeLa-IL24HTS cells, inhibitor test; assay type: cell-based, human; conditions: 1 μM Stattic, 150 ng/mL IL24, 8 hours, vs DMSO
Experimental: The selected and established HeLa-4.47 cells were cultured to 20% confluency on the day of infection. After removing the culture medium, lentivirus expressing hIL22RA1, hIL20RB or hSTAT3 was mixed with a culture medium and treated to the cells. After adding 2 μg of Polybrene per 1 mL of the virus, the plate was carefully shaken for mixing. After culturing for 15 hours under the condition of 37° C. and 5% CO2, the culture medium was replaced with a fresh one. 48 hours later, the transduced cells were cultured further and recombinant HeLa-IL24HTS cells were selected by culturing for 2 weeks in a medium containing 2 μg/mL puromycin, 5 μg/mL blasticidin S and 1,000 μg/mL G418 as antibiotics. Through this experiment, HeLa-4.47-hIL22RA1-hIL20RB-hSTAT3 cells that stably express all of hIL22RA1, hIL20RB and hSTAT3 were established and named HeLa-IL24HTS.
(§1) HeLa-IL24HTS cells and HeLa-EF1a-Luc2 cells were cultured on a 96-well plate at a concentration of 2.0×10^4 cells/well, respectively. After treating the cells with a vehicle (DMSO) (no Stattic) or 1 μM Stattic (CAS No: 19983-44-9), which is a STAT3 inhibitor, while treating with 150 ng/mL IL24 and culturing for 8 hours, luciferase activity was measured using a luciferase assay system (Promega).

[2] = system: HeLa-EF1a-Luc2 cells; test: Luciferase reporter activity in HeLa-EF1a-Luc2 cells (background control); assay type: cell-based, human; conditions: 1 μM Stattic, 150 ng/mL IL24, 8 hours, vs DMSO
Experimental: Hela cells were cultured to 20% confluency on the day of infection. After removing the culture medium, lentivirus expressing Luc2 (LVX-EIP-Luc2) was mixed with a culture medium and treated to the cells. After adding 2 μg of Polybrene per 1 mL of the virus, the plate was carefully shaken for mixing. After culturing for 15 hours under the condition of 37° C. and 5% CO2, the culture medium was replaced with a fresh one. 48 hours later, the transduced cells were cultured further and recombinant HeLa-EF1a-Luc2 cells were selected by culturing for 2 weeks in a medium containing 2 μg/mL puromycin as an antibiotic.
as §1

[3] = system: IL24-STAT3 signaling; test: Reporter activity of HeLa-IL24HTS cells treated with IL24 at different concentrations; assay type: cell-based, human; conditions: 15 ng/mL or higher IL24, 24 hours
Experimental: The HeLa-4.47 cells established in Test Example 2 were treated with lentivirus expressing hIL22RA1, hIL20RB or hSTAT3 and selected with 2 μg/mL puromycin, 5 μg/mL blasticidin S and 1,000 μg/mL G418 as antibiotics to obtain HeLa-4.47-hIL22RA1-hIL20RB-hSTAT3 cells (HeLa-IL24HTS) which stably express all of hIL22RA1, hIL20RB and hSTAT3. The specific process of preparing the HeLa-IL24HTS cell line was the same as described above.
After treating the prepared HeLa-IL24HTS cells with IL24 at different concentrations (0.15 ng/mL, 1.5 ng/mL, 15 ng/mL and 150 ng/mL) and culturing for 24 hours, luciferase activity was measured using a luciferase assay system (Promega). […] It can be seen that the HeLa-IL24HTS cells show strong reporter induction of 60 fold or higher in the presence of 15 ng/mL or higher IL24.

[4] = system: IL24-STAT3 signaling; test: Luciferase activity of pGL4.47 HeLa clones co-transfected with hIL22RA1, hIL20RB and hSTAT3, with or without IL24; assay type: cell-based, human; conditions: 150 ng/mL IL24, 24 hours, clone 12 (HeLa-4.47)
Experimental: 2 mg of pGL4.47 (Promega, E4041), which is a STAT3 reporter plasmid, was linearized using the Pst1 restriction enzyme. The linearized plasmid was transfected into Hela cells using polyethyleneimine (Polysciences). 48 hours later, the cells were transferred to a 100-mm culture dish and only the transfected cells were selected by treating with 500 μg/mL hygromycin and culturing for 2 weeks. The selected transfected cells were cultured on a 96-well plate. The cells were dispensed at 0.5 cell per well. 33 clones were obtained by culturing further for 3 weeks. Each clone was mixed with pCMV-SPORT6-hIL22RA1 (Korea Human Gene Bank), pCMV3-hIL20RB (SinoBiological) and pCMV3-hSTAT3 (SinoBiological) at 1:1:1 for co-transfection. The transfected cells were treated or untreated with 150 ng/mL IL24. After culturing for 24 hours, luciferase activity was measured by luciferase assay. The clone with the strongest activity was established and named HeLa-4.47.
HeLa cells were transfected with pGL4.47 and selecting using hygromycin to obtain 33 clones. After co-transfecting each clone by mixing with pCMV-SPORT6-hIL22RA1, pCMV3-hIL20RB and pCMV3-hSTAT3 at 1:1:1, luciferase activity was measured using a luciferase assay system (Promega) for treatment with 150 ng/mL IL24 (IL24(+)) or absence of treatment (IL24(−)).

[5] = system: IL24-STAT3 signaling; conditions: earlier literature reporter assay; cited from earlier work

IL24(+)/IL24(−) ratio of luciferase activity [4] | Molecule | reporter activity inhibited [1] | change in reporter activity [2] | reporter induction [3] [fold] | increase of reporter signal by IL24 [5]
 | O=[N+]([O-])c1ccc2c(c1)S(=O)(=O)C=C2 [Stattic] | about 80% | no significant change |  | 
150-200 | IL24: cytokine of the IL-10 family that signals through IL-20R1/IL-20R2 and IL-22R1/IL-20R2 and activates STAT3 (protein, UniProt Q13007 52-206, looked up) Interleukin-24: QEFHFGPCQVKGVVPQKLWEAFWAVKDTMQAQDNITSARLLQQEVLQNVSDAESCYLVHTLLEFYLKTVFKNYHNRTVEVRTLKSFSTLANNFVLIVSQLQPSQENEMFSIRDSAHRRFLLFRRAFKQLDVEAALTKALGEVDILLTWMQKFYKL |  |  | ≥ 60 | about 3 times
